B1: Regulator of G-protein signaling 4 (Rattus norvegicus (Rat)), P49799 (parent)
chain: MCKGLAGLPASCLRSAKDMKHRLGFLLQKSDSCEHSSSHSKKDKVVTCQRVSQEEVKKWAESLENLINHECGLAAFKAFLKSEYSEENIDFWISCEEYKKIKSPSKLSPKAKKIYNEFISVQATKEVNLDSCTREETSRNMLEPTITCFDEAQKKIFNLMEKDSYRRFLKSRFYLDLTNPSSCGAEKQKGAKSSADCTSLVPQCA
partner: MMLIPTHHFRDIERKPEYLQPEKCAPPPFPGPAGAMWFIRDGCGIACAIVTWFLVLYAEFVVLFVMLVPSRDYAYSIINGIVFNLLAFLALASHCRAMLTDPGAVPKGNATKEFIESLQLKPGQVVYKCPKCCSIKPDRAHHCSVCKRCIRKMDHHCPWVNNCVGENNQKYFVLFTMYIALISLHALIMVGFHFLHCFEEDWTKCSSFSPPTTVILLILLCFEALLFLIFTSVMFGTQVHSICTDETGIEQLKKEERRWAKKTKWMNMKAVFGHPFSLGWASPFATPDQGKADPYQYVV

Variants of: B1
Conditions: with zdhc3_mouse Zdhhc3, Q8R173

effect of a mutation on the interaction | Variant
disrupting interaction | C2S

Source: IntAct's records for PubMed 21035448
